Experiments:
[1] = biological target: T1, Human CD73 on cells (MDA-MB-231, Jurkat CD73 knock-in, NCI-H322) (human, UniProt P21589 27-549); assay: flow cytometry, Jurkat (CD73 knock-in) / Jurkat
T1 construct: GPI-anchored native protein; also called native human CD73
T1 sequence: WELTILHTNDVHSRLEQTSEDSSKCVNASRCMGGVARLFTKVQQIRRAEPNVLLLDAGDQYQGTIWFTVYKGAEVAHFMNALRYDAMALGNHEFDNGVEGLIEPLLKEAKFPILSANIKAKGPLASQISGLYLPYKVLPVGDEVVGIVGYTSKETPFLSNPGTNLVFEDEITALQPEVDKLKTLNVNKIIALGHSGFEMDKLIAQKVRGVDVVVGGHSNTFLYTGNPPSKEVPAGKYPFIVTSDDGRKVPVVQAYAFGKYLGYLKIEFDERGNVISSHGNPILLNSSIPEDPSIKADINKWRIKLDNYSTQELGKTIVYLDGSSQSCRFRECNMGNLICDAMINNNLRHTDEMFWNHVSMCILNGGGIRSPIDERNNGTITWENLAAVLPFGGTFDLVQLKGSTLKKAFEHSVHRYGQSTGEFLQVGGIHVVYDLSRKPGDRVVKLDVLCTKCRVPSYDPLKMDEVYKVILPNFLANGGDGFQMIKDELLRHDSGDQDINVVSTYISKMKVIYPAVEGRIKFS

[2] = biological target: T1, Human CD73 on cells (MDA-MB-231, Jurkat …); assay: flow cytometry, MDA-MB-231 / MDA-MB-231(CD73-shRNA)
[3] = biological target: T2, Murine CD73 on cells (4T1, Jurkat mCD73 knock-in) (murine, UniProt Q61503 29-551); assay: flow cytometry, Jurkat (mCD73 knock-in) / Jurkat
T2 construct: whole, on cells; also called 4T1 (murine)
T2 sequence (looked up): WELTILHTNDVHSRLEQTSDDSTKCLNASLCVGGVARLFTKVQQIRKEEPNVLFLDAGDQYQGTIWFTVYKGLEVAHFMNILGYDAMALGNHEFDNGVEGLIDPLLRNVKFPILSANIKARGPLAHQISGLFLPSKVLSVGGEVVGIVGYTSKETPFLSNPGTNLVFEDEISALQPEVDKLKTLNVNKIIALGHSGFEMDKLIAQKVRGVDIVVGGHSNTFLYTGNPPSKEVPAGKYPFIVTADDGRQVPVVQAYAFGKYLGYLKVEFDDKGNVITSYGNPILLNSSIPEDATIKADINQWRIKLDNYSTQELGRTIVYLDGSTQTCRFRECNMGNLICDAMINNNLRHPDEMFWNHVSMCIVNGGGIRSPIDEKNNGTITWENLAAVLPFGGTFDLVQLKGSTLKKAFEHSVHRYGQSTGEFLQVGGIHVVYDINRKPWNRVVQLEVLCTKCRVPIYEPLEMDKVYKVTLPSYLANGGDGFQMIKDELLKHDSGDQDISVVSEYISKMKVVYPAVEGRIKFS

[4] = biological target: T3, Human CD73 V144K+N185G, His-tagged (human, UniProt P21589 27-549); assay: SPR (ProteOn), CD73 variant immobilized on HTG chip
T3 chain: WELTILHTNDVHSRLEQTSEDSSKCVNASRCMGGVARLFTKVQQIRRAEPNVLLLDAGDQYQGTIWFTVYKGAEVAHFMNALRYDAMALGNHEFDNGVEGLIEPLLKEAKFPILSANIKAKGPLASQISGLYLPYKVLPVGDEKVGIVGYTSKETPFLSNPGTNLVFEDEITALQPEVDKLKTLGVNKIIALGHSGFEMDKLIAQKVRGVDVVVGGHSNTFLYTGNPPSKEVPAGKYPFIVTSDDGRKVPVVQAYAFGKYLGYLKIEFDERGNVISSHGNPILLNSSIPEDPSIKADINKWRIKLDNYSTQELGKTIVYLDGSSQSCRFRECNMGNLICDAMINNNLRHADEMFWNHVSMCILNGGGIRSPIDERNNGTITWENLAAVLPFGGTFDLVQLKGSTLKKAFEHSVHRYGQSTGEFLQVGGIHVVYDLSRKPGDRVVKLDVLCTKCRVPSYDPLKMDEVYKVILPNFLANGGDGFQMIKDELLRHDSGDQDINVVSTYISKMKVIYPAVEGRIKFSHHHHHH
Protocol: Binding of MEDI9447 to wild-type and mutant CD73 proteins was measured by surface plasmon resonance (SPR) using a ProteOn instrument (BioRad). CD73 crude cell supernatant protein samples were diluted to 3 µg/ml in PBS, 0.005% Tween-20, pH 7.4 (BioRad) and immobilized to ~400 RU on a HTG tris-NTA sensor chip (BioRad) pre-activated with 10 mM NiSO₄, 10 mM MES, pH 6.0 (BioRad). An equivalently diluted crude cell supernatant sample from non-transfected cells was included as a reference channel control. Sensorgrams were recorded by flowing two-fold dilutions of MEDI9447 prepared in PBS, 0.005% Tween-20, pH 7.4, ranging from 5 nM to 0.31 nM. […] Antibody binding was measured at a flow rate of 100 µL/min with a 3 min association phase and 20 min dissociation phase. The sensor chip surface was regenerated between each run by an 800 s injection of 300 mM EDTA, pH 8.5 (BioRad) at a flow rate of 30 µL/min. Binding kinetics were analyzed using the ProteOn data analysis software. Double referencing was performed and, unless noted otherwise, a 1:1 Langmuir binding model was utilized to fit the data. Some CD73 variants containing mutations within the amino acid region 171-188 fit poorly to a 1:1 model (i.e., Chi² values >10% of Rmax). Where noted, these variants were fit with a heterogenous antigen (2:1) model. […] Due to the assay format (antigen immobilized) and the dimeric state of CD73, KD values may be exaggerated due to avidity effects. However, it is not anticipated that this impacts ranking of MEDI9447 binding to the different CD73 variants.

B1: MEDI9447 (antibody, human IgG1, lambda, V domains shown)
VH: EVQLLESGGGLVQPGGSLRLSCAASGFTFSSYAYSWVRQAPGKGLEWVSAISGSGGRTYYADSVKGRFTISRDNSKNTLYLQMNSLRAEDTAVYYCARLGYGRVDEWGRGTLVTVSS
VL: QSVLTQPPSASGTPGQRVTISCSGSLSNIGRNPVNWYQQLPGTAPKLLIYLDNLRLSGVPDRFSGSKSGTSASLAISGLQSEDEADYYCATWDDSHPGWTFGGGTKLTVLG
notes: Human IgG1-TM (L234F, L235E, P331S), lambda light chain; also called clone 10.3 antibody; 73combo3
Question: With B1 as the binder, how does the “Mean Fluorescence Intensity Ratio (MFIR)” value [1] read?
Answer: The value was 7.9.

Question: And the “Mean Fluorescence Intensity Ratio (MFIR)” value [2]?
Answer: The value was 3.5.

Question: What about the “Mean Fluorescence Intensity Ratio (MFIR)” value [3] of the same binder?
Answer: The value was 57.1.

Question: Does B1 bind [4]?
Answer: Result: no binding

Source: patent publication US20230340152A1 (published 2023)
